Source: US20240018502A1

Target: plasma purified human complement protein C3 (human) (UniProt P01024)
Assay: cell-based or functional assay

plasma purified human complement protein C3 (human), sequence (P01024 23-667, chain 1 of 2): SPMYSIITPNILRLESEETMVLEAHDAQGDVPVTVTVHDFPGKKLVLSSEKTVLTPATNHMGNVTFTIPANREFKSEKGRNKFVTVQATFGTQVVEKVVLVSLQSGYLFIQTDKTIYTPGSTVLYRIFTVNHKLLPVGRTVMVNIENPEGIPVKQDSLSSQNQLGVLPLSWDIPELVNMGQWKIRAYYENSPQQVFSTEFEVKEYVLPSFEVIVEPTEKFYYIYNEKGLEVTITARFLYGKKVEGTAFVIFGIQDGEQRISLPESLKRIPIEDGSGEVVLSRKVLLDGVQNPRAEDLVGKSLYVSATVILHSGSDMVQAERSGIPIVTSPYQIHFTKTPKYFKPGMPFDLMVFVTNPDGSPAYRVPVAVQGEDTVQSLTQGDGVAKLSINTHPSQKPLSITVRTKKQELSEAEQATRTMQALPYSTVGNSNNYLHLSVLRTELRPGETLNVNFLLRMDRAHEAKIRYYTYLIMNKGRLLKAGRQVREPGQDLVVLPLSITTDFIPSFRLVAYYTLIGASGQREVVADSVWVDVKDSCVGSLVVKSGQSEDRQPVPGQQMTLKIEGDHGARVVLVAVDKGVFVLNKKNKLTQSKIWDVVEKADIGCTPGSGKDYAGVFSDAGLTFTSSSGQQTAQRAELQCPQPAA
plasma purified human complement protein C3 (human), sequence (P01024 672-1663, chain 2 of 2): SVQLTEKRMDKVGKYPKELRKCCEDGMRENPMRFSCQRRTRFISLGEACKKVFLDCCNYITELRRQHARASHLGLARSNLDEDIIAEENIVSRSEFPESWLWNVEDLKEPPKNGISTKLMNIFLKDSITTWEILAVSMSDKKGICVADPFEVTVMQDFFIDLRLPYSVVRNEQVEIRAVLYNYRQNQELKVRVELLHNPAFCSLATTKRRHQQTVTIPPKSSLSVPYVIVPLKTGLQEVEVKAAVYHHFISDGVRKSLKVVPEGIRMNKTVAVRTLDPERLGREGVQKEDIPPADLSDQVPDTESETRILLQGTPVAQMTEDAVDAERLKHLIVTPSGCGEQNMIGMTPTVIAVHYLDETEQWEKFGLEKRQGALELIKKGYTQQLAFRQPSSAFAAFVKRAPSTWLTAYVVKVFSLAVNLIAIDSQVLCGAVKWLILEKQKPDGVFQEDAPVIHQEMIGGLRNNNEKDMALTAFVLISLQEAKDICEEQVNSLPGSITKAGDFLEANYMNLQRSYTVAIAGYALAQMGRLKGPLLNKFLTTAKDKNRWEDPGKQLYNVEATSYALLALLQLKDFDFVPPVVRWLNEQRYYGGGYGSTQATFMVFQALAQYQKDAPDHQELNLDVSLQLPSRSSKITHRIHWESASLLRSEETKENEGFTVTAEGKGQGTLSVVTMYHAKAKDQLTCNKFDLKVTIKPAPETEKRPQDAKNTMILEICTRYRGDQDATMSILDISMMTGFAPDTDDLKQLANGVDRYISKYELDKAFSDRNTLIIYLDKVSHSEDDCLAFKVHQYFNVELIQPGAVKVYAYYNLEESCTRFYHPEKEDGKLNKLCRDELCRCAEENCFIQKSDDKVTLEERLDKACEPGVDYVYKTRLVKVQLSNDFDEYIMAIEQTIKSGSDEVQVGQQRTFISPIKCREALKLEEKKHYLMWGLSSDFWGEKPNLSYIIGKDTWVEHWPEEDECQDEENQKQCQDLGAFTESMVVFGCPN

Binder | EC50 of hC3 cleavage | EC50 hC3 cleavage
MTSP-1 Q38H/I41S/D60bT/F60eS/Y60gW/D96K/ins97aV/F97G/T98P/F99L/C122S/G151H/Q175L/Q192D (enzyme) VVGGTDADEGEWPWQVSLHALGHGHSCGASLISPNWLVSAAHCYIDTRGSRWSDPTQWTAFLGLHDQSQRSAPGVQERRLKRIISHPFFNKGVPLDYDIALLELEKPAEYSSMVRPISLPDASHVFPAGKAIWVTGWGHTQYGGTHALILQKGEIRVINQTTCENLLPQLITPRMMCVGFLSGGVDSCDGDSGGPLSSVEADGRIFQAGVVSWGDGCAQRNKPGVYTRLPLFRDWIKENTGV | 6.86 nM | –
MTSP-1 protease domain Q38H/I41S/D60bT/F60eS/Y60gW/D96K/F97G/ins97aV/T98P/F99L/C122S/T150S/G151H/Q175L/Q192D/Q209L (enzyme) VVGGTDADEGEWPWQVSLHALGHGHSCGASLISPNWLVSAAHCYIDTRGSRWSDPTQWTAFLGLHDQSQRSAPGVQERRLKRIISHPFFNKGVPLDYDIALLELEKPAEYSSMVRPISLPDASHVFPAGKAIWVTGWGHTQYGGSHALILQKGEIRVINQTTCENLLPQLITPRMMCVGFLSGGVDSCDGDSGGPLSSVEADGRIFLAGVVSWGDGCAQRNKPGVYTRLPLFRDWIKENTGV | – | 2.88 nM
MTSP-1 protease domain Q38H/I41S/D60bT/F60eS/Y60gW/D96K/F97G/ins97aV/T98P/F99L/M117K/C122S/G151H/Q175L/Q192D (enzyme) VVGGTDADEGEWPWQVSLHALGHGHSCGASLISPNWLVSAAHCYIDTRGSRWSDPTQWTAFLGLHDQSQRSAPGVQERRLKRIISHPFFNKGVPLDYDIALLELEKPAEYSSKVRPISLPDASHVFPAGKAIWVTGWGHTQYGGTHALILQKGEIRVINQTTCENLLPQLITPRMMCVGFLSGGVDSCDGDSGGPLSSVEADGRIFQAGVVSWGDGCAQRNKPGVYTRLPLFRDWIKENTGV | – | 4.75 nM
MTSP-1 Q38H/I41S/D60bT/F60eS/Y60gW/D96V/F97G/ins97aV/T98P/F99L/C122S/G151H/Q175L/Q192D (enzyme) VVGGTDADEGEWPWQVSLHALGHGHSCGASLISPNWLVSAAHCYIDTRGSRWSDPTQWTAFLGLHDQSQRSAPGVQERRLKRIISHPFFNVGVPLDYDIALLELEKPAEYSSMVRPISLPDASHVFPAGKAIWVTGWGHTQYGGTHALILQKGEIRVINQTTCENLLPQLITPRMMCVGFLSGGVDSCDGDSGGPLSSVEADGRIFQAGVVSWGDGCAQRNKPGVYTRLPLFRDWIKENTGV | 2.85 nM | –
MTSP-1 protease domain L36Q/Q38H/I41S/D60bT/F60eS/Y60gW/D96K/F97G/ins97aV/T98P/F99L/C122S/G151H/Q175L/Q192D (enzyme) VVGGTDADEGEWPWQVSLHAQGHGHSCGASLISPNWLVSAAHCYIDTRGSRWSDPTQWTAFLGLHDQSQRSAPGVQERRLKRIISHPFFNKGVPLDYDIALLELEKPAEYSSMVRPISLPDASHVFPAGKAIWVTGWGHTQYGGTHALILQKGEIRVINQTTCENLLPQLITPRMMCVGFLSGGVDSCDGDSGGPLSSVEADGRIFQAGVVSWGDGCAQRNKPGVYTRLPLFRDWIKENTGV | – | 5.49 nM
MTSP-1 protease domain Q38H/I41S/D60bT/F60eS/Y60gW/D96K/F97G/ins97aA/T98P/F99L/C122S/G151H/Q175L/Q192D (enzyme) VVGGTDADEGEWPWQVSLHALGHGHSCGASLISPNWLVSAAHCYIDTRGSRWSDPTQWTAFLGLHDQSQRSAPGVQERRLKRIISHPFFNKGAPLDYDIALLELEKPAEYSSMVRPISLPDASHVFPAGKAIWVTGWGHTQYGGTHALILQKGEIRVINQTTCENLLPQLITPRMMCVGFLSGGVDSCDGDSGGPLSSVEADGRIFQAGVVSWGDGCAQRNKPGVYTRLPLFRDWIKENTGV | – | 1.43 nM
MTSP-1 protease domain I41G/F97S/F99L/C122S/G151T/Q175R/Q192A/D217Y (enzyme) VVGGTDADEGEWPWQVSLHALGQGHGCGASLISPNWLVSAAHCYIDDRGFRYSDPTQWTAFLGLHDQSQRSAPGVQERRLKRIISHPFFNDSTLDYDIALLELEKPAEYSSMVRPISLPDASHVFPAGKAIWVTGWGHTQYGGTTALILQKGEIRVINQTTCENLLPQRITPRMMCVGFLSGGVDSCAGDSGGPLSSVEADGRIFQAGVVSWGYGCAQRNKPGVYTRLPLFRDWIKENTGV | – | 52.8 nM
MTSP-1 protease domain I41G/F97T/F99M/C122S/G151D/Q175T/Q192T/D217V (enzyme) VVGGTDADEGEWPWQVSLHALGQGHGCGASLISPNWLVSAAHCYIDDRGFRYSDPTQWTAFLGLHDQSQRSAPGVQERRLKRIISHPFFNDTTMDYDIALLELEKPAEYSSMVRPISLPDASHVFPAGKAIWVTGWGHTQYGGTDALILQKGEIRVINQTTCENLLPQTITPRMMCVGFLSGGVDSCTGDSGGPLSSVEADGRIFQAGVVSWGVGCAQRNKPGVYTRLPLFRDWIKENTGV | – | 45.6 nM
MTSP-1 protease domain Q38Y/I41S/D60bT/F60eR/D96M/F97N/T98G/F99L/C122S/G151N/Q175L/Q192D (enzyme) VVGGTDADEGEWPWQVSLHALGYGHSCGASLISPNWLVSAAHCYIDTRGRRYSDPTQWTAFLGLHDQSQRSAPGVQERRLKRIISHPFFNMNGLDYDIALLELEKPAEYSSMVRPISLPDASHVFPAGKAIWVTGWGHTQYGGTNALILQKGEIRVINQTTCENLLPQLITPRMMCVGFLSGGVDSCDGDSGGPLSSVEADGRIFQAGVVSWGDGCAQRNKPGVYTRLPLFRDWIKENTGV | – | 16.4 nM
MTSP-1 protease domain I41G/F97A/F99L/C122S/G151H/Q175L/Q192G/D217L (enzyme) VVGGTDADEGEWPWQVSLHALGQGHGCGASLISPNWLVSAAHCYIDDRGFRYSDPTQWTAFLGLHDQSQRSAPGVQERRLKRIISHPFFNDATLDYDIALLELEKPAEYSSMVRPISLPDASHVFPAGKAIWVTGWGHTQYGGTHALILQKGEIRVINQTTCENLLPQLITPRMMCVGFLSGGVDSCGGDSGGPLSSVEADGRIFQAGVVSWGLGCAQRNKPGVYTRLPLFRDWIKENTGV | – | 47.8 nM
MTSP-1 protease domain Q38Y/I41S/D60bT/F60eR/Y60gW/F97N/T98G/F99L/C122S/G151N/Q175L/Q192D (enzyme) VVGGTDADEGEWPWQVSLHALGYGHSCGASLISPNWLVSAAHCYIDTRGRRWSDPTQWTAFLGLHDQSQRSAPGVQERRLKRIISHPFFNDNGLDYDIALLELEKPAEYSSMVRPISLPDASHVFPAGKAIWVTGWGHTQYGGTNALILQKGEIRVINQTTCENLLPQLITPRMMCVGFLSGGVDSCDGDSGGPLSSVEADGRIFQAGVVSWGDGCAQRNKPGVYTRLPLFRDWIKENTGV | – | 15.9 nM
MTSP-1 protease domain I41G/F97S/F99L/C122S/G151N/Q175I/Q192T/D217T (enzyme) VVGGTDADEGEWPWQVSLHALGQGHGCGASLISPNWLVSAAHCYIDDRGFRYSDPTQWTAFLGLHDQSQRSAPGVQERRLKRIISHPFFNDSTLDYDIALLELEKPAEYSSMVRPISLPDASHVFPAGKAIWVTGWGHTQYGGTNALILQKGEIRVINQTTCENLLPQIITPRMMCVGFLSGGVDSCTGDSGGPLSSVEADGRIFQAGVVSWGTGCAQRNKPGVYTRLPLFRDWIKENTGV | – | 84.4 nM
MTSP-1 protease domain Q38Y/I41S/D60bT/F60eR/Y60gW/D96M/F97N/F99L/C122S/G151N/Q175L/Q192D (enzyme) VVGGTDADEGEWPWQVSLHALGYGHSCGASLISPNWLVSAAHCYIDTRGRRWSDPTQWTAFLGLHDQSQRSAPGVQERRLKRIISHPFFNMNTLDYDIALLELEKPAEYSSMVRPISLPDASHVFPAGKAIWVTGWGHTQYGGTNALILQKGEIRVINQTTCENLLPQLITPRMMCVGFLSGGVDSCDGDSGGPLSSVEADGRIFQAGVVSWGDGCAQRNKPGVYTRLPLFRDWIKENTGV | – | 10.8 nM
MTSP-1 protease domain Q38Y/I41S/D60bT/F60eR/Y60gW/D96M/T98G/F99L/C122S/G151N/Q175L/Q192D (enzyme) VVGGTDADEGEWPWQVSLHALGYGHSCGASLISPNWLVSAAHCYIDTRGRRWSDPTQWTAFLGLHDQSQRSAPGVQERRLKRIISHPFFNMFGLDYDIALLELEKPAEYSSMVRPISLPDASHVFPAGKAIWVTGWGHTQYGGTNALILQKGEIRVINQTTCENLLPQLITPRMMCVGFLSGGVDSCDGDSGGPLSSVEADGRIFQAGVVSWGDGCAQRNKPGVYTRLPLFRDWIKENTGV | – | 3.27 nM
MTSP-1 protease domain Q38Y/I41S/D60bT/F60eR/Y60gW/D96M/F97N/T98G/C122S/G151N/Q175L/Q192D (enzyme) VVGGTDADEGEWPWQVSLHALGYGHSCGASLISPNWLVSAAHCYIDTRGRRWSDPTQWTAFLGLHDQSQRSAPGVQERRLKRIISHPFFNMNGFDYDIALLELEKPAEYSSMVRPISLPDASHVFPAGKAIWVTGWGHTQYGGTNALILQKGEIRVINQTTCENLLPQLITPRMMCVGFLSGGVDSCDGDSGGPLSSVEADGRIFQAGVVSWGDGCAQRNKPGVYTRLPLFRDWIKENTGV | – | 33.6 nM
MTSP-1 protease domain Q38Y/I41S/D60bT/F60eR/Y60gW/D96M/F97N/T98G/F99L/C122S/G151N/Q175L (enzyme) VVGGTDADEGEWPWQVSLHALGYGHSCGASLISPNWLVSAAHCYIDTRGRRWSDPTQWTAFLGLHDQSQRSAPGVQERRLKRIISHPFFNMNGLDYDIALLELEKPAEYSSMVRPISLPDASHVFPAGKAIWVTGWGHTQYGGTNALILQKGEIRVINQTTCENLLPQLITPRMMCVGFLSGGVDSCQGDSGGPLSSVEADGRIFQAGVVSWGDGCAQRNKPGVYTRLPLFRDWIKENTGV | – | 1.08 nM
MTSP-1 protease domain I41G/F97L/F99L/C122S/G151N/Q175A/Q192V/D217R (enzyme) VVGGTDADEGEWPWQVSLHALGQGHGCGASLISPNWLVSAAHCYIDDRGFRYSDPTQWTAFLGLHDQSQRSAPGVQERRLKRIISHPFFNDLTLDYDIALLELEKPAEYSSMVRPISLPDASHVFPAGKAIWVTGWGHTQYGGTNALILQKGEIRVINQTTCENLLPQAITPRMMCVGFLSGGVDSCVGDSGGPLSSVEADGRIFQAGVVSWGRGCAQRNKPGVYTRLPLFRDWIKENTGV | – | 34 nM
MTSP-1 protease domain I41R/F97A/F99L/C122S/G151N/Q175R/Q192G/D217Q (enzyme) VVGGTDADEGEWPWQVSLHALGQGHRCGASLISPNWLVSAAHCYIDDRGFRYSDPTQWTAFLGLHDQSQRSAPGVQERRLKRIISHPFFNDATLDYDIALLELEKPAEYSSMVRPISLPDASHVFPAGKAIWVTGWGHTQYGGTNALILQKGEIRVINQTTCENLLPQRITPRMMCVGFLSGGVDSCGGDSGGPLSSVEADGRIFQAGVVSWGQGCAQRNKPGVYTRLPLFRDWIKENTGV | – | 401 nM
MTSP-1 protease domain I41G/F97L/F99L/C122S/G151T/Q175M/Q192D/D217M (enzyme) VVGGTDADEGEWPWQVSLHALGQGHGCGASLISPNWLVSAAHCYIDDRGFRYSDPTQWTAFLGLHDQSQRSAPGVQERRLKRIISHPFFNDLTLDYDIALLELEKPAEYSSMVRPISLPDASHVFPAGKAIWVTGWGHTQYGGTTALILQKGEIRVINQTTCENLLPQMITPRMMCVGFLSGGVDSCDGDSGGPLSSVEADGRIFQAGVVSWGMGCAQRNKPGVYTRLPLFRDWIKENTGV | – | 36.8 nM
MTSP-1 protease domain Q38Y/I41S/D60bT/F60eR/Y60gW/D96M/F97N/T98G/F99L/C122S/G151N/Q192D (enzyme) VVGGTDADEGEWPWQVSLHALGYGHSCGASLISPNWLVSAAHCYIDTRGRRWSDPTQWTAFLGLHDQSQRSAPGVQERRLKRIISHPFFNMNGLDYDIALLELEKPAEYSSMVRPISLPDASHVFPAGKAIWVTGWGHTQYGGTNALILQKGEIRVINQTTCENLLPQQITPRMMCVGFLSGGVDSCDGDSGGPLSSVEADGRIFQAGVVSWGDGCAQRNKPGVYTRLPLFRDWIKENTGV | – | 56.7 nM
MTSP-1 protease domain I41S/F97E/F99L/C122S/G151N/Q175G/Q192R/D217A (enzyme) VVGGTDADEGEWPWQVSLHALGQGHSCGASLISPNWLVSAAHCYIDDRGFRYSDPTQWTAFLGLHDQSQRSAPGVQERRLKRIISHPFFNDETLDYDIALLELEKPAEYSSMVRPISLPDASHVFPAGKAIWVTGWGHTQYGGTNALILQKGEIRVINQTTCENLLPQGITPRMMCVGFLSGGVDSCRGDSGGPLSSVEADGRIFQAGVVSWGAGCAQRNKPGVYTRLPLFRDWIKENTGV | – | 74.3 nM
